Data on one molecule can be found in patent US20240425569A1 (VISTERRA, published 2024).

Test [1] addresses ED3-DV4/H241/Phil56 (EDIII of DENV-4 strain H241) (dengue virus serotype DENV-4, strain …, UniProt Q58HT7 572-679).
Test [2] has as its target dengue virus DENV-3 strain Philippines/1956 (H87) (live virus; E protein) (dengue virus serotype DENV-3, strain …, UniProt P27915 281-773). Put plainly: cell-based or functional assay.
Test [3] has as its target dengue virus DENV-1 strain Hawaii/1944 (live virus; E protein) (dengue virus serotype DENV-1, strain …). Put plainly: cell-based or functional assay.
Test [4] deals with dengue virus DENV-2 strain New Guinea/1944 (NGC) (live virus; E protein) (dengue virus serotype DENV-2, strain …, UniProt P14340 281-775). Put plainly: cell-based or functional assay.
Test [5] deals with dengue virus DENV-4 strain Mexico/1997 (BC287/97) (live virus; E protein) (dengue virus serotype DENV-4, strain …). Put plainly: cell-based or functional assay.
The target of test [6] is T1, New Caledonia/2009 (serotype IV EDIII).
T1 construct: also called ED3-DV4/NewCal09; DENV-4 NC
T1 E protein domain III (EDIII): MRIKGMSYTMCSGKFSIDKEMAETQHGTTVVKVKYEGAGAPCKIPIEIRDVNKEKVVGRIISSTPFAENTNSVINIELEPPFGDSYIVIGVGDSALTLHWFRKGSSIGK
Put plainly: Kd table, method not stated; Ag DENV-4 NC.

The target in test [7] is T2, Singapore/2009 (serotype III EDIII).
T2 construct: also called ED3-DV3/Sing09; DENV-3 Sing
T2 E protein domain III (EDIII): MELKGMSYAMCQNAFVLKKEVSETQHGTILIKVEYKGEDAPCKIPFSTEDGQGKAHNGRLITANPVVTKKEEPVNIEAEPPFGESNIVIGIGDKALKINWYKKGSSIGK

For test [8], the target named is T3, Mexico/2007 (serotype I EDIII).
T3 construct: also called ED3-DV1/Mexico07
T3 E protein domain III (EDIII): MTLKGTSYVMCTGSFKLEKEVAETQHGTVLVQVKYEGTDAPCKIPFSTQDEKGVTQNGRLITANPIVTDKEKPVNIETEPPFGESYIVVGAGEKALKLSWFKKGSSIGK

In test [9] the target is T2, Singapore/2009 (serotype III EDIII).
Test [10] addresses T4, Venezuela/2008 (serotype IV EDIII).
T4 E protein domain III (EDIII): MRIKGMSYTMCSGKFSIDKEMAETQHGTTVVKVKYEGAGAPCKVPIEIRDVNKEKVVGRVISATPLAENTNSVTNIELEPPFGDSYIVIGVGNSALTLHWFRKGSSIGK
Put plainly: SPR; row Venezuela/2008, serotype IV, genotype IIa.

Test [11] has as its target T5, Cambodia/2008 (serotype III EDIII).
T5 construct: Genotype II; also called ED3-DV3/Cambodia08
T5 E protein domain III (EDIII): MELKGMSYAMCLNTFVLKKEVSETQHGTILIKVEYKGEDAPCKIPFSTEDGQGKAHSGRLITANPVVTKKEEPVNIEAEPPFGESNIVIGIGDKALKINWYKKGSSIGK
Put plainly: ELISA; row Cambodia/2008, serotype III, genotype II.

Test [12] concerns the target T6, Thailand/1997 (serotype IV EDIII).
T6 E protein domain III (EDIII): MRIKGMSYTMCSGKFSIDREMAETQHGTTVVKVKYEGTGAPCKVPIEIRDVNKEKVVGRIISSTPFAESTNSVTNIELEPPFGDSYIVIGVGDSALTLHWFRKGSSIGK
Put plainly: ELISA; row Thailand/1997, serotype IV, genotype III.

Test [13] addresses T7, Singapore/2010 (serotype IV EDIII).
T7 construct: also called ED3-DV4/Sing10; DENV-4 Sing
T7 E protein domain III (EDIII): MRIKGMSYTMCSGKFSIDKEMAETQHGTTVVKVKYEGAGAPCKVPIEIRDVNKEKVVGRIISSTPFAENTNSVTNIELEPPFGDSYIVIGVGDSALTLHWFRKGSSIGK
Put plainly: ELISA; row Singapore/2010, serotype IV, genotype IIb.

Test [14] has as its target T8, Puerto Rico/1977 (serotype III EDIII).
T8 construct: Genotype IV; also called ED3-DV3/PuertoRico77
T8 E protein domain III (EDIII): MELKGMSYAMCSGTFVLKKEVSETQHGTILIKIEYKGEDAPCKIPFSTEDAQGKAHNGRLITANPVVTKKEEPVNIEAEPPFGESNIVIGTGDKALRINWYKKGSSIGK
Put plainly: SPR; row Puerto Rico/1977, serotype III, genotype IV.

In test [15] the target is T9, Philippines/1956 (H87)* (serotype III EDIII) (Dengue virus 3).
T9 construct: isolated EDIII protein
Put plainly: SPR; row Philippines/1956 (H87)*, serotype III, genotype I.

The target in test [16] is T10, EDIII-DV1 (E protein domain III of dengue virus serotype DV-1) (dengue virus serotype DV-1, UniProt P17763 573-680).
T10 construct: also called DENV-1; EDIII of DV-1
T10 chain: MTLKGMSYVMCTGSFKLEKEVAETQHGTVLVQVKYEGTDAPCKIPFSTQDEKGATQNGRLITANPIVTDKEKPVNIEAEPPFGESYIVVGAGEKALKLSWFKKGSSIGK

Test [17] concerns the target T11, Mexico/1977 (BC287/97)* (serotype IV EDIII) (Dengue virus 4).
T11 construct: isolated EDIII protein; also called EDIII of DENV-4 Mexico/1997 (BC287/97); DENV-4 BC2
Put plainly: ELISA; row Mexico/1977 (BC287/97)*, serotype IV, genotype IIa.

For test [18], the target named is T12, Singapore/2008 (serotype II EDIII).
T12 construct: also called ED3-DV2/Sing08; DENV-2 Sing
Put plainly: ELISA; row Singapore/2008, serotype II, genotype Cosmopolitan.

The target in test [19] is T13, New Guinea/1944 (NGC)* (serotype II EDIII) (Dengue virus 2).
T13 construct: isolated EDIII protein; also called EDIII of DENV-2 NGC
Put plainly: ELISA; row New Guinea/1944 (NGC)*, serotype II, genotype Asian I.

Where two headings read alike, the source gives them in different places.

B1: antibody D88 (antibody, V domains shown)
VH: QVQLVQSGAEVKKPGASVKVSCKAGFNIKDVYMSWVRQAPEQGLEWMGRIDPENGDTKYDPKLQGRVTMTADTSTNTAYMELRSLRSDDTAVYYCARGWEGFAYWGQGTLVTVSS
VL: DIVMTQSPASLAVSLGERATISCRASENVDKYGNSFMHWYQQKPGQPPKLLIYRASELQWGVPDRFSGSGSGTDFTLTISSLQAEDVAVYYCQRSNEVPWTFGQGTKLEIK
notes: also called mAb D88
In the case of B1, the Kd is 100 nM in [1]; 10.8 nM in test [6]; 0.33 nM in test [7]; 0.071 nM in test [8]; 0.61 nM in test [9]; 3.03 nM in [10]. Besides, the Kd in [11] turned out to be 1.32 nM; in test [12], 612 nM; in test [13] it was 8.43 nM; in test [14], 1.4 nM; in test [15], 1 nM; in test [16], 0.041 nM. The Kd in [17] is 4.32 nM; in [18], < 0.1 nM; in test [19], < 0.1 nM. Also, the “EC50, FRNT” value in [2], in [3], in test [4] and in test [5] was < 1 µg/mL throughout.
